In the supplement of paper PMC6757056:
± gives the standard deviation of the averaged measurements.

B1: library; a variant is named by its letters at N, in order (parent)
chain: GCUGUCACCGAGAAACUGUGAAGUAUAUCUUAAACCUGGGCACUUAAAAGAUAUAUGGAGUUAGUAGUGCAACCUGCUCGGUCUGAUGAGUCCNNNNNNGGACGAAACAGC

Columns and labels:
cyclic di-GMP [1] = variants of: B1; experiment: normalized RNA/DNA level without ligand (relative to sTRSVctl = 100) (log10 (% of sTRSVctl)); HEK293T; ligand: cyclic di-GMP (c-di-GMP-II aptamer); higher = less ribozyme self-cleavage, higher mRNA level; settings: reporter: mCherry (pCS4076), ligand present: no
Procedure, shortened: (§1)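 Ribozyme switch library plasmids linked to reporters were introduced into HEK293T cells at 4 µg per 6-well well, with ligand, if any, added 1 h before. Total RNA was extracted with EDTA 72 h later, reverse-transcribed, amplified, barcoded and sequenced. RNA level was computed from RNA over DNA reads relative to a spiked-in non-cleaving sequence or the top sequences, then scaled and log-transformed. The top set was 25 sequences, values were ×100 and log10, and the cutoff was ≥100 DNA reads.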

cyclic di-GMP [2] = variants of: B1; experiment: normalized RNA/DNA level with ligand (relative to sTRSVctl = 100) (log10 (% of sTRSVctl)); HEK293T; ligand: cyclic di-GMP (c-di-GMP-II aptamer); ligand concentration (+) RNA-Seq: 1 mM; higher = less ribozyme self-cleavage, higher mRNA level; settings: reporter: mCherry (pCS4076), ligand present: yes
Procedure, shortened: as §1

Row | Variant | normalized RNA/DNA level without ligand (log10) (cyclic di-GMP [1]) | normalized RNA/DNA level with ligand (log10) (cyclic di-GMP [2])
1 | AACAGC | 1.63 ± 0.078 | 1.78 ± 0.14
2 | AAAAGU | 1.52 ± 0.071 | 1.71 ± 0.057
3 | CACCAA | 1.4 ± 0.088 | 1.57 ± 0.1
4 | CACCAU | 1.593 ± 0.0031 | 1.75 ± 0.11
5 | CACCAG | 1.74 ± 0.03 | 1.88 ± 0.11
6 | CACCAC | 1.675 ± 0.0098 | 1.85 ± 0.096
7 | AACCGU | 1.54 ± 0.056 | 1.74 ± 0.091
8 | AACCGC | 1.718 ± 0.0043 | 1.86 ± 0.1
9 | AACCGA | 1.5 ± 0.1 | 1.61 ± 0.089
10 | CACAGG | 1.68 ± 0.029 | 1.804 ± 0.0089
11 | CACAGC | 1.729 ± 0.0089 | 1.84 ± 0.085
12 | UAAGUC | 1.663 ± 0.0049 | 1.8 ± 0.11
13 | AAAGGC | 1.6 ± 0.044 | 1.77 ± 0.14
14 | CACAUC | 1.682 ± 0.0036 | 1.74 ± 0.034
15 | CACAUG | 1.717 ± 0.01 | 1.84 ± 0.095
16 | AAAGAG | 1.44 ± 0.097 | 1.63 ± 0.1
17 | AAAGAA | 1.34 ± 0.14 | 1.55 ± 0.1
18 | CAAUAG | 1.73 ± 0.024 | 1.83 ± 0.14
19 | CAAUAC | 1.592 ± 0.015 | 1.73 ± 0.13
20 | UAACUG | 1.73 ± 0.017 | 1.84 ± 0.13
21 | UAACUA | 1.688 ± 0.0017 | 1.82 ± 0.12
22 | GAAUGU | 1.579 ± 0.014 | 1.76 ± 0.07
23 | AACAAA | 1.45 ± 0.11 | 1.65 ± 0.079
24 | AACAAC | 1.542 ± 0.01 | 1.75 ± 0.11

Row | Variant | normalized RNA/DNA level without ligand (log10) (cyclic di-GMP [1]) | normalized RNA/DNA level with ligand (log10) (cyclic di-GMP [2])
25 | AACAUU | 1.7 ± 0.037 | 1.84 ± 0.067
26 | AACAUA | 1.52 ± 0.076 | 1.74 ± 0.12
27 | GACAGG | 1.759 ± 0.0092 | 1.85 ± 0.037
28 | GACAGC | 1.74 ± 0.087 | 1.87 ± 0.14
29 | GACAGU | 1.662 ± 0.0086 | 1.79 ± 0.11
30 | GAAUUC | 1.8 ± 0.021 | 1.92 ± 0.09
31 | GAAUUA | 1.55 ± 0.026 | 1.74 ± 0.097
32 | GAAUUU | 1.652 ± 0.015 | 1.85 ± 0.12
33 | AAACGU | 1.47 ± 0.095 | 1.62 ± 0.18
34 | AAACGA | 1.39 ± 0.15 | 1.57 ± 0.097
35 | AAACGC | 1.67 ± 0.027 | 1.85 ± 0.082
36 | CAAAUG | 1.64 ± 0.017 | 1.82 ± 0.068
37 | CAAAUC | 1.61 ± 0.034 | 1.76 ± 0.091
38 | AAACCA | 1.57 ± 0.054 | 1.76 ± 0.094
39 | AAACCC | 1.718 ± 0.0046 | 1.86 ± 0.09
40 | AAACCU | 1.72 ± 0.018 | 1.84 ± 0.097
41 | UAAUAU | 1.64 ± 0.017 | 1.78 ± 0.11
42 | UAAUAA | 1.66 ± 0.018 | 1.8 ± 0.085
43 | UAAUAC | 1.68 ± 0.013 | 1.81 ± 0.075
44 | AAAUUA | 1.54 ± 0.04 | 1.75 ± 0.11
45 | AAAUUU | 1.67 ± 0.067 | 1.82 ± 0.17
46 | AAAUUC | 1.6899 ± 0.00096 | 1.85 ± 0.11
47 | UACAGG | 1.65 ± 0.044 | 1.82 ± 0.081
48 | UACAGU | 1.62 ± 0.021 | 1.8 ± 0.069

Row | Variant | normalized RNA/DNA level without ligand (log10) (cyclic di-GMP [1]) | normalized RNA/DNA level with ligand (log10) (cyclic di-GMP [2])
49 | UACAGC | 1.619 ± 0.0088 | 1.77 ± 0.11
50 | AAAUGG | 1.5 ± 0.092 | 1.68 ± 0.076
51 | CACCUC | 1.704 ± 0.014 | 1.87 ± 0.098
52 | CACCUG | 1.76 ± 0.023 | 1.85 ± 0.06
53 | GAAAGC | 1.59 ± 0.029 | 1.72 ± 0.068
54 | GAAAGG | 1.56 ± 0.041 | 1.72 ± 0.12
55 | CAACGC | 1.757 ± 0.014 | 1.84 ± 0.11
56 | CAACGG | 1.671 ± 0.012 | 1.77 ± 0.061
57 | CAACGU | 1.67 ± 0.025 | 1.82 ± 0.096
58 | CAACGA | 1.56 ± 0.063 | 1.73 ± 0.11
59 | AAAGCA | 1.656 ± 0.0051 | 1.77 ± 0.11
60 | AAAGCC | 1.7 ± 0.025 | 1.84 ± 0.13
61 | AAAGCG | 1.689 ± 0.0061 | 1.78 ± 0.14
62 | CAAAGG | 1.59 ± 0.033 | 1.75 ± 0.081
63 | CAAAGC | 1.717 ± 0.011 | 1.84 ± 0.091
64 | GAACGC | 1.64 ± 0.07 | 1.78 ± 0.058
65 | GAACGG | 1.703 ± 0.0094 | 1.78 ± 0.082
66 | CAAGAC | 1.64 ± 0.06 | 1.8 ± 0.082
67 | CAAGAG | 1.6 ± 0.023 | 1.78 ± 0.14
68 | CAAGAU | 1.6 ± 0.048 | 1.79 ± 0.086
69 | CAAGCC | 1.76 ± 0.022 | 1.85 ± 0.087
70 | CAAGCU | 1.67 ± 0.021 | 1.83 ± 0.071
71 | CAAGCA | 1.63 ± 0.035 | 1.76 ± 0.11
72 | CAAGCG | 1.74 ± 0.052 | 1.85 ± 0.11

Row | Variant | normalized RNA/DNA level without ligand (log10) (cyclic di-GMP [1]) | normalized RNA/DNA level with ligand (log10) (cyclic di-GMP [2])
73 | GAAGUA | 1.64 ± 0.021 | 1.76 ± 0.061
74 | GAAGUC | 1.59 ± 0.021 | 1.74 ± 0.038
75 | GAAGUG | 1.732 ± 0.0044 | 1.81 ± 0.095
76 | GACCGU | 1.74 ± 0.066 | 1.86 ± 0.03
77 | GACCGC | 1.81 ± 0.036 | 1.8 ± 0.083
78 | AACCCG | 1.665 ± 0.014 | 1.81 ± 0.06
79 | AACCCA | 1.621 ± 0.0091 | 1.81 ± 0.13
80 | UACCAG | 1.701 ± 0.003 | 1.83 ± 0.11
81 | UACCAA | 1.66 ± 0.022 | 1.8 ± 0.12
82 | UACCAC | 1.698 ± 0.0019 | 1.82 ± 0.11
83 | UAAAUC | 1.63 ± 0.033 | 1.79 ± 0.17
84 | UACCGA | 1.56 ± 0.058 | 1.77 ± 0.068
85 | UACCGG | 1.68 ± 0.025 | 1.87 ± 0.11
86 | UACCGU | 1.59 ± 0.027 | 1.75 ± 0.1
87 | UACCGC | 1.73 ± 0.031 | 1.86 ± 0.14
88 | GAACUC | 1.725 ± 0.004 | 1.85 ± 0.1
89 | GAACUU | 1.68 ± 0.051 | 1.83 ± 0.096
90 | GAACUG | 1.66 ± 0.059 | 1.75 ± 0.089
91 | CAACCC | 1.719 ± 0.015 | 1.82 ± 0.12
92 | CAACCA | 1.54 ± 0.084 | 1.71 ± 0.1
93 | CAACCG | 1.817 ± 0.009 | 1.88 ± 0.071
94 | GACCCC | 1.8 ± 0.055 | 1.88 ± 0.14
95 | GACCCA | 1.75 ± 0.02 | 1.85 ± 0.093
96 | GACCCG | 1.7824 ± 0.00091 | 1.86 ± 0.11

Row | Variant | normalized RNA/DNA level without ligand (log10) (cyclic di-GMP [1]) | normalized RNA/DNA level with ligand (log10) (cyclic di-GMP [2])
97 | GACCCU | 1.779 ± 0.0057 | 1.87 ± 0.089
98 | UAAGCC | 1.78 ± 0.024 | 1.88 ± 0.091
99 | UAAGCA | 1.75 ± 0.018 | 1.87 ± 0.082
100 | UAAGCU | 1.7 ± 0.031 | 1.83 ± 0.097
101 | UAAGCG | 1.75 ± 0.023 | 1.86 ± 0.089
102 | CACAAU | 1.47 ± 0.11 | 1.68 ± 0.097
103 | CACAAC | 1.59 ± 0.028 | 1.77 ± 0.085
104 | CACAAG | 1.66 ± 0.017 | 1.83 ± 0.11
105 | CAAUCG | 1.77 ± 0.039 | 1.89 ± 0.16
106 | GAAGAC | 1.563 ± 0.0055 | 1.76 ± 0.12
107 | GAAGAG | 1.5 ± 0.14 | 1.71 ± 0.094
108 | GACCUC | 1.72 ± 0.047 | 1.86 ± 0.12
109 | GACCUU | 1.69 ± 0.0029 | 1.86 ± 0.13
110 | AACCAG | 1.6 ± 0.035 | 1.73 ± 0.13
111 | AACCAC | 1.668 ± 0.0054 | 1.81 ± 0.11
112 | AACCUA | 1.51 ± 0.041 | 1.71 ± 0.13
113 | AACCUC | 1.757 ± 0.0019 | 1.85 ± 0.058
114 | AACCUG | 1.57 ± 0.029 | 1.73 ± 0.092
115 | CAAGUC | 1.7 ± 0.055 | 1.78 ± 0.14
116 | CAAGUG | 1.68 ± 0.045 | 1.84 ± 0.12
